US20220267436A1 (published 2022)

How the values were obtained:
human LAG-3 [1] = molecular target: T1, human LAG-3 (human, UniProt P18627 23-525); experiment: flow cytometry, CHO-K1 cells expressing human LAG-3; FIG. 1
T1 chain: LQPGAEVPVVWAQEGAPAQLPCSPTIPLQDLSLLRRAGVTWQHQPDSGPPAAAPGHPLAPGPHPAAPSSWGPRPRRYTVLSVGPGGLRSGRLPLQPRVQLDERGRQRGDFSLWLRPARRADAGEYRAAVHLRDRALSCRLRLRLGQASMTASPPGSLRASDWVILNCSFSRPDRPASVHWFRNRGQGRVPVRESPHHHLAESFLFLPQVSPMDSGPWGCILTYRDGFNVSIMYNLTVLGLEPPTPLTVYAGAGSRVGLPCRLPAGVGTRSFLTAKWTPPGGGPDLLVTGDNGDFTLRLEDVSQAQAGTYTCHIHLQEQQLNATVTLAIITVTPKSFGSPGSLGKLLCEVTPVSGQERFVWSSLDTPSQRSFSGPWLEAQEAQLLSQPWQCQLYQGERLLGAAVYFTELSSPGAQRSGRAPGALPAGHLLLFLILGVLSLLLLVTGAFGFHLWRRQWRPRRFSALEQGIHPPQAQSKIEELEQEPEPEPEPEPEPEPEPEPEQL

human CD47 = human CD47 (human, UniProt Q08722 19-323); experiment: flow
human LAG-3 [2] = molecular target: T1, human LAG-3; experiment: flow cytometry, CHO-K1 cells expressing human LAG-3; FIG. 2

Sequence of human CD47 (Q08722 19-323): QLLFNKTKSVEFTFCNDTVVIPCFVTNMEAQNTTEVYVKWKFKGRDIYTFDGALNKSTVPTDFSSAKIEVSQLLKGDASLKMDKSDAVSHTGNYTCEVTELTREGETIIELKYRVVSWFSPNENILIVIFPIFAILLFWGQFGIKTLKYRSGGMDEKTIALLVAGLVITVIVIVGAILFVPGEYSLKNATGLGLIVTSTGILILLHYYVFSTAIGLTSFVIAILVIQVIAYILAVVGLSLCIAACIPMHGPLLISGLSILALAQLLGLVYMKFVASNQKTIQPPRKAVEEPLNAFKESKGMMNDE

Row | Binder | EC50 (human LAG-3 [1]) | EC50 (human CD47) | EC50 (human LAG-3 [2])
1 | bispecific antibody LAG3-E-HC (bispecific antibody) heavy: not shown light: EIVLTQSPATLSLSPGERATLSCRASENVGTYISWYQQKPGQAPRLLIYGASNRYTGIPARFSGSGSGTDFTLTISSLEPEDFAVYYCGESYGHLYTFGGGTKVEIKRTVAAPSVFIFPPSDEQLKSGTASVVCLLNNFYPREAKVQWKVDNALQSGNSQESVTEQDSKDSTYSLSSTLTLSKADYEKHKVYACEVTHQGLSSPVTKSFNRGEC | 0.8 nM | 1.17 nM | –
2 | anti-CD47 monoclonal antibody (mAb) (antibody, V domains shown) VH: EVQLVQSGAEVKKPGSSVKVSCKASGYSFTHHWIHWVRQAPGQGLEWMGMIDASDSETRLSQKFKDRVTITADKSTSTAYMELSSLRSEDTAVYYCARLGRYYFDYWGQGTTVTVSS VL: EIVLTQSPATLSLSPGERATLSCRASENVGTYISWYQQKPGQAPRLLIYGASNRYTGIPARFSGSGSGTDFTLTISSLEPEDFAVYYCGESYGHLYTFGGGTKVEIKR | – | 1.01 nM | –
3 | bispecific antibody LAG3-G9-HC (bispecific antibody) heavy: not shown light: EIVLTQSPATLSLSPGERATLSCRASENVGTYISWYQQKPGQAPRLLIYGASNRYTGIPARFSGSGSGTDFTLTISSLEPEDFAVYYCGESYGHLYTFGGGTKVEIKRTVAAPSVFIFPPSDEQLKSGTASVVCLLNNFYPREAKVQWKVDNALQSGNSQESVTEQDSKDSTYSLSSTLTLSKADYEKHKVYACEVTHQGLSSPVTKSFNRGEC | 0.602 nM | 0.865 nM | –
4 | bispecific antibody LAG3-E-HN (bispecific antibody) heavy: not shown light: EIVLTQSPATLSLSPGERATLSCRASENVGTYISWYQQKPGQAPRLLIYGASNRYTGIPARFSGSGSGTDFTLTISSLEPEDFAVYYCGESYGHLYTFGGGTKVEIKRTVAAPSVFIFPPSDEQLKSGTASVVCLLNNFYPREAKVQWKVDNALQSGNSQESVTEQDSKDSTYSLSSTLTLSKADYEKHKVYACEVTHQGLSSPVTKSFNRGEC | 0.526 nM | 4.44 nM | –
5 | bispecific antibody LAG3-E-LC (bispecific antibody) heavy: not shown light: EIVLTQSPATLSLSPGERATLSCRASENVGTYISWYQQKPGQAPRLLIYGASNRYTGIPARFSGSGSGTDFTLTISSLEPEDFAVYYCGESYGHLYTFGGGTKVEIKRTVAAPSVFIFPPSDEQLKSGTASVVCLLNNFYPREAKVQWKVDNALQSGNSQESVTEQDSKDSTYSLSSTLTLSKADYEKHKVYACEVTHQGLSSPVTKSFNRGECEPKSSDKTHTSPPSPEVQLVESGGGLVQPGGSLRLSCAASGYTVSSYCMGWFRQAPGKGREGVSAIDSDGSVSYADSVKGRFTISKDNSKNTLYLQMNSLRAEDTAVYFCAADLCWVDQDQGEYNTWGQGTLVTVSS | – | – | 0.552 nM
6 | bispecific antibody LAG3-E-LN (bispecific antibody) heavy: not shown light: EVQLVESGGGLVQPGGSLRLSCAASGYTVSSYCMGWFRQAPGKGREGVSAIDSDGSVSYADSVKGRFTISKDNSKNTLYLQMNSLRAEDTAVYFCAADLCWVDQDQGEYNTWGQGTLVTVSSEPKSSDKTHTSPPSPEIVLTQSPATLSLSPGERATLSCRASENVGTYISWYQQKPGQAPRLLIYGASNRYTGIPARFSGSGSGTDFTLTISSLEPEDFAVYYCGESYGHLYTFGGGTKVEIKRTVAAPSVFIFPPSDEQLKSGTASVVCLLNNFYPREAKVQWKVDNALQSGNSQESVTEQDSKDSTYSLSSTLTLSKADYEKHKVYACEVTHQGLSSPVTKSFNRGEC | – | – | 0.448 nM

Now from value to binder:

Row | EC50 (human LAG-3 [1]) | EC50 (human CD47) | EC50 (human LAG-3 [2]) | Binder
7 | 0.672 nM | 0.911 nM | – | bispecific antibody LAG3-G15-HC (bispecific antibody) heavy: not shown light: EIVLTQSPATLSLSPGERATLSCRASENVGTYISWYQQKPGQAPRLLIYGASNRYTGIPARFSGSGSGTDFTLTISSLEPEDFAVYYCGESYGHLYTFGGGTKVEIKRTVAAPSVFIFPPSDEQLKSGTASVVCLLNNFYPREAKVQWKVDNALQSGNSQESVTEQDSKDSTYSLSSTLTLSKADYEKHKVYACEVTHQGLSSPVTKSFNRGEC
8 | – | – | 0.322 nM | bispecific antibody LAG3-G9-LN (bispecific antibody) heavy: not shown light: EVQLVESGGGLVQPGGSLRLSCAASGYTVSSYCMGWFRQAPGKGREGVSAIDSDGSVSYADSVKGRFTISKDNSKNTLYLQMNSLRAEDTAVYFCAADLCWVDQDQGEYNTWGQGTLVTVSSGGGGSGGGSEIVLTQSPATLSLSPGERATLSCRASENVGTYISWYQQKPGQAPRLLIYGASNRYTGIPARFSGSGSGTDFTLTISSLEPEDFAVYYCGESYGHLYTFGGGTKVEIKRTVAAPSVFIFPPSDEQLKSGTASVVCLLNNFYPREAKVQWKVDNALQSGNSQESVTEQDSKDSTYSLSSTLTLSKADYEKHKVYACEVTHQGLSSPVTKSFNRGEC
9 | – | – | 0.535 nM | bispecific antibody LAG3-G15-LN (bispecific antibody) heavy: not shown light: EVQLVESGGGLVQPGGSLRLSCAASGYTVSSYCMGWFRQAPGKGREGVSAIDSDGSVSYADSVKGRFTISKDNSKNTLYLQMNSLRAEDTAVYFCAADLCWVDQDQGEYNTWGQGTLVTVSSGGGGSGGGGSGGGGSEIVLTQSPATLSLSPGERATLSCRASENVGTYISWYQQKPGQAPRLLIYGASNRYTGIPARFSGSGSGTDFTLTISSLEPEDFAVYYCGESYGHLYTFGGGTKVEIKRTVAAPSVFIFPPSDEQLKSGTASVVCLLNNFYPREAKVQWKVDNALQSGNSQESVTEQDSKDSTYSLSSTLTLSKADYEKHKVYACEVTHQGLSSPVTKSFNRGEC
10 | 0.477 nM | 3.96 nM | – | bispecific antibody LAG3-G9-HN (bispecific antibody) heavy: not shown light: EIVLTQSPATLSLSPGERATLSCRASENVGTYISWYQQKPGQAPRLLIYGASNRYTGIPARFSGSGSGTDFTLTISSLEPEDFAVYYCGESYGHLYTFGGGTKVEIKRTVAAPSVFIFPPSDEQLKSGTASVVCLLNNFYPREAKVQWKVDNALQSGNSQESVTEQDSKDSTYSLSSTLTLSKADYEKHKVYACEVTHQGLSSPVTKSFNRGEC
11 | 0.57 nM | 3.85 nM | – | bispecific antibody LAG3-G15-HN (bispecific antibody) heavy: not shown light: EIVLTQSPATLSLSPGERATLSCRASENVGTYISWYQQKPGQAPRLLIYGASNRYTGIPARFSGSGSGTDFTLTISSLEPEDFAVYYCGESYGHLYTFGGGTKVEIKRTVAAPSVFIFPPSDEQLKSGTASVVCLLNNFYPREAKVQWKVDNALQSGNSQESVTEQDSKDSTYSLSSTLTLSKADYEKHKVYACEVTHQGLSSPVTKSFNRGEC
